Here are results for 65 molecules from patent US20180177842A1 (CANIMGUIDE THERAPEUTICS, published 2018).

This test deals with T1, P3028 (VFDEFKPLVEEPQNLIK, SEQ ID NO: 185), His-tagged (human).
T1 construct: Synthetic fragment of human serum albumin (positions 397-413); used in solution as His-tagged peptide PGE73; also called PGE73; not shown: His-tag
T1 peptide: VFDEFKPLVEEPQNLIK
The test can be described thus: PEPSCAN ELISA; peptide on chip, His-P3028 added.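 Further: peroxidase color development with ABTS and H2O2 substrate, OD405 imaged by CCD camera with image processing and taken as raw values.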 A general note: In an ELISA, binding on a coated surface is turned into a signal by an enzyme label.

Regarding KKLDTFQVKLSLFTER [KKLDTFQVKLSLFTER (SEQ ID NO: 322)], the “RAMPO Score” value came to 511 rampo units. Next, KKWDTFFVKLSLFTER [KKWDTFFVKLSLFTER (SEQ ID NO: 458)]: 341 rampo units; KKLDTKFVKLSLFTER [KKLDTKFVKLSLFTER (SEQ ID NO: 460)]: 337 rampo units; KKLDTGFVKLSLFTER [KKLDTGFVKLSLFTER (SEQ ID NO: 446)]: 347 rampo units.

As to KKLDTFYVKLSLFTER [KKLDTFYVKLSLFTER (SEQ ID NO: 463)], the “RAMPO Score” value worked out at 334 rampo units.

KKVDTFFVKLSLFTER [KKVDTFFVKLSLFTER (SEQ ID NO: 297)]: the “RAMPO Score” value is 377 rampo units.

As to KKLRTFFVKLSLFTER [KKLRTFFVKLSLFTER (SEQ ID NO: 480)], the “RAMPO Score” value stood at 317 rampo units.

Turning to KKLNTFFVKLSLFTER [KKLNTFFVKLSLFTER (SEQ ID NO: 498)], the “RAMPO Score” value came out at 296 rampo units. In the case of KKLDTRFVKLSLFTER [KKLDTRFVKLSLFTER (SEQ ID NO: 486)] it was 309 rampo units. In the case of KKNDTFFVKLSLFTER [KKNDTFFVKLSLFTER (SEQ ID NO: 292)] it was 374 rampo units; in that of KKLDTTFVKLSLFTER [KKLDTTFVKLSLFTER (SEQ ID NO: 318)], 481 rampo units. Next, KTLDTFFVKLSLFTER [KTLDTFFVKLSLFTER (SEQ ID NO: 468)]: 331 rampo units; KKSDTFFVKLSLFTER [KKSDTFFVKLSLFTER (SEQ ID NO: 295)]: 393 rampo units. Regarding KKLFTFFVKLSLFTER [KKLFTFFVKLSLFTER (SEQ ID NO: 426)], the “RAMPO Score” value is 380 rampo units. Next, KKLDYFFVKLSLFTER [KKLDYFFVKLSLFTER (SEQ ID NO: 312)]: 425 rampo units. In the case of KKLMTFFVKLSLFTER [KKLMTFFVKLSLFTER (SEQ ID NO: 423)] it was 384 rampo units; in that of KKLGTFFVKLSLFTER [KKLGTFFVKLSLFTER (SEQ ID NO: 515)], 264 rampo units; in that of KKLDTFWVKLSLFTER [KKLDTFWVKLSLFTER (SEQ ID NO: 425)], 380 rampo units. In the case of KKLDTFRVKLSLFTER [KKLDTFRVKLSLFTER (SEQ ID NO: 432)] it was 369 rampo units; in that of KWLDTFFVKLSLFTER [KWLDTFFVKLSLFTER (SEQ ID NO: 490)], 304 rampo units. Take KKTDTFFVKLSLFTER [KKTDTFFVKLSLFTER (SEQ ID NO: 296)]: the “RAMPO Score” value was determined as 451 rampo units.

Take KKLSTFFVKLSLFTER [KKLSTFFVKLSLFTER (SEQ ID NO: 451)]: the “RAMPO Score” value was 344 rampo units. In the case of KKLDTNFVKLSLFTER [KKLDTNFVKLSLFTER (SEQ ID NO: 316)] it was 446 rampo units; in that of KRLDTFFVKLSLFTER [KRLDTFFVKLSLFTER (SEQ ID NO: 407)], 417 rampo units. In the case of KKLKTFFVKLSLFTER [KKLKTFFVKLSLFTER (SEQ ID NO: 512)] it was 274 rampo units. With KPLDTFFVKLSLFTER [KPLDTFFVKLSLFTER (SEQ ID NO: 405)], the “RAMPO Score” value was found to be 425 rampo units. Next, KSLDTFFVKLSLFTER (also called 30684) [KSLDTFFVKLSLFTER (SEQ ID NO: 510)]: 281 rampo units. Next, KMLDTFFVKLSLFTER [KMLDTFFVKLSLFTER (SEQ ID NO: 417)]: 400 rampo units. Next, KKLDTMFVKLSLFTER [KKLDTMFVKLSLFTER (SEQ ID NO: 315)]: 467 rampo units; KKLDTVFVKLSLFTER [KKLDTVFVKLSLFTER (SEQ ID NO: 319)]: 547 rampo units. Regarding KKMDTFFVKLSLFTER [KKMDTFFVKLSLFTER (SEQ ID NO: 291)], the “RAMPO Score” value was 460 rampo units. In the case of KKLHTFFVKLSLFTER [KKLHTFFVKLSLFTER (SEQ ID NO: 479)] it was 317 rampo units; in that of KKLWTFFVKLSLFTER [KKLWTFFVKLSLFTER (SEQ ID NO: 302)], 443 rampo units.

In the case of KKLDTHFVKLSLFTER [KKLDTHFVKLSLFTER (SEQ ID NO: 466)], the “RAMPO Score” value amounted to 332 rampo units.

KKLITFFVKLSLFTER [KKLITFFVKLSLFTER (SEQ ID NO: 300)]: the “RAMPO Score” value came to 430 rampo units. Next, KKLDTWFVKLSLFTER [KKLDTWFVKLSLFTER (SEQ ID NO: 444)]: 348 rampo units. Next, KKLDTFSVKLSLFTER [KKLDTFSVKLSLFTER (SEQ ID NO: 323)]: 700 rampo units; KKLDTPFVKLSLFTER [KKLDTPFVKLSLFTER (SEQ ID NO: 317)]: 497 rampo units; NKLDTFFVKLSLFTER [NKLDTFFVKLSLFTER (SEQ ID NO: 276)]: 445 rampo units.

For KKLDTFVVKLSLFTER [KKLDTFVVKLSLFTER (SEQ ID NO: 325)], the “RAMPO Score” value amounted to 527 rampo units.

As for KKLDTIFVKLSLFTER [KKLDTIFVKLSLFTER (SEQ ID NO: 314)], the “RAMPO Score” value came out at 466 rampo units. Next, KNLDTFFVKLSLFTER [KNLDTFFVKLSLFTER (SEQ ID NO: 402)]: 432 rampo units; KKLPTFFVKLSLFTER [KKLPTFFVKLSLFTER (SEQ ID NO: 435)]: 364 rampo units. Next, KKLDTLFVKLSLFTER [KKLDTLFVKLSLFTER (SEQ ID NO: 411)]: 408 rampo units. For KQLDTFFVKLSLFTER [KQLDTFFVKLSLFTER (SEQ ID NO: 440)], the “RAMPO Score” value stood at 350 rampo units.

For KKLETFFVKLSLFTER [KKLETFFVKLSLFTER (SEQ ID NO: 299)], the “RAMPO Score” value was 417 rampo units. In the case of KKLDVFFVKLSLFTER [KKLDVFFVKLSLFTER (SEQ ID NO: 429)] it was 374 rampo units; in that of KKLQTFFVKLSLFTER [KKLQTFFVKLSLFTER (SEQ ID NO: 448)], 345 rampo units. Next, KKLDTQFVKLSLFTER [KKLDTQFVKLSLFTER (SEQ ID NO: 410)]: 410 rampo units; KKLDWFFVKLSLFTER [KKLDWFFVKLSLFTER (SEQ ID NO: 311)]: 418 rampo units. In the case of MKLDTFFVKLSLFTER [MKLDTFFVKLSLFTER (SEQ ID NO: 275)] it was 457 rampo units; in that of LKLDTFFVKLSLFTER [LKLDTFFVKLSLFTER (SEQ ID NO: 274)], 449 rampo units; in that of KKLDTSFVKLSLFTER [KKLDTSFVKLSLFTER (SEQ ID NO: 401)], 432 rampo units. Take KKRDTFFVKLSLFTER [KKRDTFFVKLSLFTER (SEQ ID NO: 294)]: the “RAMPO Score” value stood at 370 rampo units.

Regarding KKLLTFFVKLSLFTER [KKLLTFFVKLSLFTER (SEQ ID NO: 491)], the “RAMPO Score” value worked out at 303 rampo units. In the case of KVLDTFFVKLSLFTER [KVLDTFFVKLSLFTER (SEQ ID NO: 481)] it was 317 rampo units; in that of KYLDTFFVKLSLFTER [KYLDTFFVKLSLFTER (SEQ ID NO: 494)], 301 rampo units. As to KKQDTFFVKLSLFTER [KKQDTFFVKLSLFTER (SEQ ID NO: 293)], the “RAMPO Score” value is 473 rampo units.

For KKYDTFFVKLSLFTER [KKYDTFFVKLSLFTER (SEQ ID NO: 452)], the “RAMPO Score” value is 344 rampo units. Turning to KKLDTYFVKLSLFTER [KKLDTYFVKLSLFTER (SEQ ID NO: 434)], the “RAMPO Score” value is 364 rampo units. In the case of KLLDTFFVKLSLFTER [KLLDTFFVKLSLFTER (SEQ ID NO: 454)] it was 343 rampo units; in that of KKPDTFFVKLSLFTER [KKPDTFFVKLSLFTER (SEQ ID NO: 436)], 361 rampo units. Next, KKLTTFFVKLSLFTER [KKLTTFFVKLSLFTER (SEQ ID NO: 413)]: 405 rampo units; KKLYTFFVKLSLFTER [KKLYTFFVKLSLFTER (SEQ ID NO: 303)]: 422 rampo units. Next, KKLDTFTVKLSLFTER [KKLDTFTVKLSLFTER (SEQ ID NO: 324)]: 517 rampo units.
